Data: patent US20170363643A1

How the values were obtained:
[1] = target: His-tagged recombinant human SMN protein (ProteinTech, catalog # ag14333) (human) (UniProt Q16637); test: Erenna sandwich assay, capture MABE230 12.5 µg/mg MPs; Det Ab 1000 ng/mL; SMN 1.85 pg/mL
[2] = target: His-tagged recombinant human SMN protein (ProteinTech, catalog # ag14333) (human) (UniProt Q16637); test: Erenna sandwich assay, capture MABE230; SMN 2 pg/mL, MPs 5 µg/well, Det Ab 50 ng/mL, Cap Ab/MP 12.5 µg/mg
[3] = target: endogenous SMN protein in human CSF (human) (UniProt Q16637); test: Erenna sandwich assay, capture MABE230; human CSF sample 5, unspiked (endogenous SMN only)
[4] = target: His-tagged recombinant human SMN protein (ProteinTech, catalog # ag14333) (human) (UniProt Q16637); test: Erenna sandwich assay, capture MABE230 12.5 µg/mg MPs; Det Ab 500 ng/mL; SMN 1.85 pg/mL
[5] = target: His-tagged recombinant human SMN protein (ProteinTech, catalog # ag14333) (human) (UniProt Q16637); test: Erenna sandwich assay, capture MABE230; SMN 2 pg/mL, MPs 5 µg/well, Det Ab 500 ng/mL, Cap Ab/MP 25 µg/mg
[6] = target: endogenous SMN protein in human CSF (human) (UniProt Q16637); test: Erenna sandwich assay, capture MABE230; human CSF sample 2, unspiked (endogenous SMN only)
[7] = target: His-tagged recombinant human SMN protein (ProteinTech, catalog # ag14333) (human) (UniProt Q16637); test: Erenna sandwich assay, capture MABE230; SMN 2 pg/mL, MPs 5 µg/well, Det Ab 500 ng/mL, Cap Ab/MP 12.5 µg/mg
[8] = target: His-tagged recombinant human SMN protein (ProteinTech, catalog # ag14333) (human) (UniProt Q16637); test: Erenna sandwich assay, capture MABE230; human CSF sample 3 spiked with recombinant SMN 10.0 pg/mL (endogenous SMN also present)
[9] = target: His-tagged recombinant human SMN protein (ProteinTech, catalog # ag14333) (human) (UniProt Q16637); test: Erenna sandwich assay, capture MABE230 12.5 µg/mg MPs; Det Ab 500 ng/mL; SMN 200.00 pg/mL
[10] = target: His-tagged recombinant human SMN protein (ProteinTech, catalog # ag14333) (human) (UniProt Q16637); test: Erenna sandwich assay, capture MABE230; SMN 2 pg/mL, MPs 5 µg/well, Det Ab 1000 ng/mL, Cap Ab/MP 12.5 µg/mg
[11] = target: His-tagged recombinant human SMN protein (ProteinTech, catalog # ag14333) (human) (UniProt Q16637); test: Erenna sandwich assay, capture MABE230 12.5 µg/mg MPs; Det Ab 500 ng/mL; SMN 0.06 pg/mL
[12] = target: His-tagged recombinant human SMN protein (ProteinTech, catalog # ag14333) (human) (UniProt Q16637); test: Erenna sandwich assay, capture MABE230 12.5 µg/mg MPs; Det Ab 500 ng/mL; SMN 0.12 pg/mL
[13] = target: His-tagged recombinant human SMN protein (ProteinTech, catalog # ag14333) (human) (UniProt Q16637); test: Erenna sandwich assay, capture MABE230 12.5 µg/mg MPs; Det Ab 500 ng/mL; SMN 66.67 pg/mL
[14] = target: His-tagged recombinant human SMN protein (ProteinTech, catalog # ag14333) (human) (UniProt Q16637); test: Erenna sandwich assay, capture MABE230; SMN 2 pg/mL, MPs 5 µg/well, Det Ab 100 ng/mL, Cap Ab/MP 12.5 µg/mg
[15] = target: His-tagged recombinant human SMN protein (ProteinTech, catalog # ag14333) (human) (UniProt Q16637); test: Erenna sandwich assay, capture MABE230; human CSF sample 4 spiked with recombinant SMN 10.0 pg/mL (endogenous SMN also present)
[16] = target: His-tagged recombinant human SMN protein (ProteinTech, catalog # ag14333) (human) (UniProt Q16637); test: Erenna sandwich assay, capture MABE230; human CSF sample 1 spiked with recombinant SMN 10.0 pg/mL (endogenous SMN also present)
[17] = target: His-tagged recombinant human SMN protein (ProteinTech, catalog # ag14333) (human) (UniProt Q16637); test: BLI (BLItz), His-tagged SMN immobilised on the biosensor tip, antibody in solution
[18] = target: His-tagged recombinant human SMN protein (ProteinTech, catalog # ag14333) (human) (UniProt Q16637); test: Erenna sandwich assay, capture MABE230; SMN 2 pg/mL, MPs 10 µg/well, Det Ab 100 ng/mL, Cap Ab/MP 12.5 µg/mg
[19] = target: His-tagged recombinant human SMN protein (ProteinTech, catalog # ag14333) (human) (UniProt Q16637); test: Erenna sandwich assay, capture MABE230; SMN 2 pg/mL, MPs 5 µg/well, Det Ab 100 ng/mL, Cap Ab/MP 25 µg/mg
[20] = target: His-tagged recombinant human SMN protein (ProteinTech, catalog # ag14333) (human) (UniProt Q16637); test: Erenna sandwich assay, capture MABE230 12.5 µg/mg MPs; Det Ab 500 ng/mL; SMN 7.41 pg/mL
[21] = target: His-tagged recombinant human SMN protein (ProteinTech, catalog # ag14333) (human) (UniProt Q16637); test: Erenna sandwich assay, capture MABE230; SMN 2 pg/mL, MPs 5 µg/well, Det Ab 1000 ng/mL, Cap Ab/MP 25 µg/mg
[22] = target: His-tagged recombinant human SMN protein (ProteinTech, catalog # ag14333) (human) (UniProt Q16637); test: Erenna sandwich assay, capture MABE230; SMN 2 pg/mL, MPs 10 µg/well, Det Ab 50 ng/mL, Cap Ab/MP 25 µg/mg

ProteinTech anti-SMN2 (catalog #60154-1-Ig) (antibody)
detected events (DE) (detected events) [1]: 2140 | event photons (EP) (event photons) [1]: 312000 | detected events (DE) (detected events) [2]: 450 | detected events (DE) (detected events) [3]: 479 | detected events (DE) (detected events) [4]: 1850 | event photons (EP) (event photons) [4]: 267000 | detected events (DE) (detected events) [5]: 1930 | detected events (DE) (detected events) [6]: 240 | detected events (DE) (detected events) [7]: 1950 | detected events (DE) (detected events) [8]: 9140 | detected events (DE) (detected events) [9]: 9460 | event photons (EP) (event photons) [9]: 1.86e+07 | detected events (DE) (detected events) [10]: 2590 | detected events (DE) (detected events) [11]: 91 | event photons (EP) (event photons) [11]: 14200 | detected events (DE) (detected events) [12]: 154 | event photons (EP) (event photons) [12]: 19500 | detected events (DE) (detected events) [13]: 12000 | event photons (EP) (event photons) [13]: 9.53e+06 | detected events (DE) (detected events) [14]: 753 | detected events (DE) (detected events) [15]: 8660 | detected events (DE) (detected events) [16]: 9730 | Kd [17]: < 1 pM | koff [17]: < 1e-07 s⁻¹ | kon [17]: 118000 M⁻¹ s⁻¹ | detected events (DE) (detected events) [18]: 1050 | detected events (DE) (detected events) [19]: 817 | detected events (DE) (detected events) [20]: 5960 | event photons (EP) (event photons) [20]: 1.05e+06 | detected events (DE) (detected events) [21]: 2180 | detected events (DE) (detected events) [22]: 776
